Experimental data from publication PMC10838023 (Molecular microbiology, 2023).

T1: GfcR-StrepII (Haloferax volcanii (expressed in H26), UniProt Q8NKQ2 1-210)
T1 sequence: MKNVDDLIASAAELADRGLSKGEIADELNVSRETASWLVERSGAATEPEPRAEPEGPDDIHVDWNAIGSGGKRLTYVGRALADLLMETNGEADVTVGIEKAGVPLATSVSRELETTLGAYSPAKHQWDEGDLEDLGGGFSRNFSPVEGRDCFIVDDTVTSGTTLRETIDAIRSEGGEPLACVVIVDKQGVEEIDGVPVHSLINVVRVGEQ


Columns and labels:
GfcR-StrepII = target: T1, GfcR-StrepII; experiment: EMSA
SEC = target: the molecule itself; experiment: SEC

| Binder | binding result (GfcR-StrepII) | stoichiometry N (SEC) |
| --- | --- | --- |
| PptfC (dsDNA) DNA 1: GGACCTCGAAGACGTGCTGACGAACGAAACGCACGTCGAGGTGACGACCGTTCGGACCCGGTGACTCTCGGATGAACGTTTGTTAACGACCGAAACACGCAGTAACGTTCATATTCGAAAGGGTTTTTGAGCACATTTGCGTACGTTCTTTCGTAGGGGTGGCAACACTATG DNA 2: CATAGTGTTGCCACCCCTACGAAAGAACGTACGCAAATGTGCTCAAAAACCCTTTCGAATATGAACGTTACTGCGTGTTTCGGTCGTTAACAAACGTTCATCCGAGAGTCACCGGGTCCGAACGGTCGTCACCTCGACGTGCGTTTCGTTCGTCAGCACGTCTTCGAGGTCC | binds | – |
| GfcR-StrepII (glucose and fructose catabolism regulator GfcR of Haloferax volcanii with a C-terminal StrepII tag) (natural protein, UniProt Q8NKQ2 1-210, looked up) MKNVDDLIASAAELADRGLSKGEIADELNVSRETASWLVERSGAATEPEPRAEPEGPDDIHVDWNAIGSGGKRLTYVGRALADLLMETNGEADVTVGIEKAGVPLATSVSRELETTLGAYSPAKHQWDEGDLEDLGGGFSRNFSPVEGRDCFIVDDTVTSGTTLRETIDAIRSEGGEPLACVVIVDKQGVEEIDGVPVHSLINVVRVGEQ | – | 4 |
